From the DeepSol protein solubility set

Assay: soluble on expression in E. coli; label from the status in PepcDB or PDB records

Row | Sequence | soluble on expression in E. coli
1 | MGSDKIHHHHHHMALNKPKIVILGAGYGGLMTVTRLTKYVGPNDADITLVNKHNYHYETTWMHEASAGTLHHDRCRYQIKDVINQSRVNFVQDTVKAIKIDEKKVVLANGELQYDYLVIGLGAVPETFGIKGLKEYAFPIANINTSRLLREHIELQFATYNTEAEKRPDRLTIVVGGAGFTGIEFLGELAARVPELCKEYDVDRSLVRIICVEAAPTVLPGFDPELVDYAVHYLEENGVEFKIGTAVQECTPEGVRVGKKDEEPEQIKSQTVVWAAGVRGHPIVEEAGFENMRGRVKVNPDLRAPGHDNVFILGDSSLFMNEDTERPYPPTAQIAMQQGITVAKNLGRLIKGGELEEFKPDIKGTVASLGEHNAVGVVYGRKLKGTPASFMKKVIDNRSLFMIGGLGLTLKKGKFKFF | not soluble
2 | MKLSLVFLLFVAFAKSADTAPVDFNKIFVTFVEELMDAINQLILEQMGAIRPSTTPLQSIPPITATDAPTTADTTAEPTKAHETTVAQEATSEGAETHETTVGQDTTVRSGESQETTVSQGTTVSQENTVSQETTVSQDTTVSQETTVSQDTTVSQDTTVSQESTVSQETTVSQDTTVSQETSVSHETNVSPDTTVSQESTVSQDTTVSQETTLSQETTVSQETTVSQDTTVSQETTASQDTTVSQDTTVSQDTTVVPQETTVEATKASEATEENGTTAVTPGESDPCDTTEAPTGGSTVGESEPCDTTEASEPTGHTDQAETVTDPASQATASATIIGGVDQTGSTNLEATTEQICKHPTKDSEEEKTDENKDEKTTRAGTNVHRPEREDILK | not soluble
3 | MGSDKIHHHHHHMNMPNSFSNSHIYLGNVMHRRFSPKKHSFDYRLFMLALDVADVEKAQGGFGVFGFSWYRPLRFVETDYLKESIKDNSKDNLAGDPRSLSHRIKNKVHELAGYADIKRIVMLVQVRCFGIYFSPANFYFCYDQDDKCTQMLAEVSNTPWNERHYYLVDLLKEEGDKTTKKMFQVSPFMDLAMTYFWQVTPPCNGNDKLLVKIENKRVNDESGTVSKLFDASLVMRRKPFTKASLLRIWGQLPVMTMKVVVTIYWQALKLFIKRVPFIGYQKPS | not soluble
4 | MGSDKIHHHHHHMKKVVVGLSGGVDSSTAAAILHNQGYEVIGLTLWLMKGKGQCCSEGMIDAAYICEQLGIPHEVVDMRDVFQTHIVDYLVTGYGAGITPLPCSQCNKTVKFGPMVQYAREQLGCDRIATGHYARISYDEASGRYQLLRAVDRNKDQSYFLYDLSQDLLAASLFPLGEMEKADTRRIATEHGLKTADKPESQDLCLVESNGSMRAFLDKYIAPKKGDIVDTAGKILGQHDGVHHYTIGQRKGLGIAAPEPLYVVELDAVNNKVVVGDRTKATQEECTVSRVNWVSIPEPSTPIRAAVQIRYRSAPEPVTVIPLENSRVRLVFDEPQFSITPGQAAVWYDGDKVLGGGIIEQFSN | not soluble
5 | MAHHHHHHMSSSSSALDVPLVEVICSYPTREGLCAECPALLLLVYEHVVAELQAGRRAVDVFRGTSRQDHLSELLAVRSLSELFERLYPLSQSCILDESTASSQFWRQARVTLEAAWAAPHDAKGRALLTQVRGQPRFHFCGPRDVETPGEGYPLHPVSLERALATSKRFLRTAMTCALDGSTDALAGRQPELRAVLQLAHLVPLTPSTGAPPRKEVTPEGLSFCMVSLQQRWWILVNAALERVLLLTRAAVNGNGNTSGSSGVTKPLLWQLLAVLSVLDTTQYVFAFPERQQDLAAHHLLARLSEVGLVYPLLSNDRKCFVLSPDFLHAIHWHASAPLSLTFNHHLLRSASGVSGAGIGDLRREDTDTIITETNFRLFAYTNDADLLNILNQFAELEEIVNGNLHCYRVTRASFAAAMRKGITAAQVLRFLSLRAHPSMLRRHGEREENGDTASPSSAGGASSSFTFSASPRRGAVAGTCGSTTSIDAVSTLVVPQSFCDQMRMWESECRRVVFEHHVVLLRNMSTQQQKAVTAYLTDAGEVDAVVHAERGYMVIREEVFERLVAPLLG | not soluble
6 | MKPKPLKCITSHHYIIKFYDKSNLRTSLYLLIFKEHKDYREQMKVYIIDYHKDDPKRCTGKKLVKLKIAEFTRVGKGVVLDPFAQITLSNKDKDIVRRIGITIVDTSWNNTSQSEFKNIRGEHRRIPILFAGNPIHYGIAYKLSSIEALIATLYIVDEVEEAIKLSNVVKWGHTFIELNKELLEAYKNKTEEDIKKIEREIIEKILEKLEHHHHHH | not soluble
7 | MGSDKIHHHHHHMKQLVELERSSLGPQEAPVRLALSPDAGSPRDPQWQGPSGGFAINGKFASQRITGVQRVGYELAVAFQHLFPHGTDLPLLVPPNARTDVVFPNAKVIGRRLKGSLWEQFSLPFATGRRTLLSLCNMGPLFVRRQVVMVHDVAIYDLPQNYSWKYRLWYRVALSLLKRNVRHIVTVSEFSKKRIVERLGIDASRISVVLNGVDHFEKISPDTAILSRLNLQKDGYVLAVGNLSVGKNLPRILTAVERLNDSHDWKFVVVGGCDLRVFNSGAKVGFDLSKNIVPAGFVSDGELRALYENAACFLFPSLYEGFGLPPLEAMSCGCPVIVSREASLPEVCGDAALYCDAYSVDDIVDKVTQMMADPAARETWRQRGREHARGFRWERSARQLLGILERELAGEVAPPVHAQSAQSDQSAPSRV | not soluble
8 | MSLDKKAVFADVAEKDASFINENYYISPSLDTLSSYSLLQLRKVPHLVVGHKSYGKIEFLEPVDLAGIPLTSLGGVIITFEPKTCIIYANLPNRPKRGEGINVRARITCFNCYPVDKSTRKPIKDPNHQLVKRHIERLKKNPNSKFESYDADSGTYVFIVNHAAEQTEGHHHHHH | soluble
9 | MSLSSAYDRKNLEKKNRELRELNDKIGDVAKTFETLQLELYNDLIKEFSKDLTSWNATIDPDNTIRFKEPDVLFDSGKSQVKERFKVVLDDFFPRYVKILSQEKYKGDIEEIRIEGHTSSEWLNAKTLEERYLGNAALSQARAFEVLKYCFALERIKGEQDWLIKVLRANGLSFAKPLDSEEHSRRVEFRTLTRSHQKMLKILDLSKEGHHHHHH | soluble
10 | MNLVSLRDSPQYLERAIAYFQSKWGNENTKMVYDNCFRHSLNAENPIPQWYLLMNGDEIIGCAGLTSNDFNSRADLYPWLVALFIEEKYRGNHYANLLIEQAKKDTLKFGFSKLYLSTSHTSYYERLGFTYIGDCWHPWGESSRVYEIILKF | not soluble
11 | MGHHHHHHSHAADEEKAARGIAADRLIIGHVARFHEVKNHAFLLKLAAHLKERGIRFQLVLAGDGPLCGEIEEEARQQNLLSDVLFLGTEERIHELMRTFDVFVMPSLYEGLPVVLVEAQASGLPCIISDSITEKVDAGLGLVTRLSLSEPISVWAETIARAAAAGRPKREFIKETLAQ | soluble
12 | MEDKVDVLIIGGGASGVTSGIQSARMGANTLILEESTWLGGMLTSAGVSAVDGNYRLPAGLWGEFKNRLSDYYGGLDSLKTGWVSNVLFEPSVGNKILHEMVAAENNLKVWKQACLEEVKRTGDEWVAKVKVEGQGVKTVRAKVMIDATELGDVAKMCGVKYDIGLEHHHHHH | soluble
13 | MSLTTGRISELLSPNYADLNDPRPIFDWMQVIRKRAVVYVGLDALSDTEVAAAVGNSMFSDLVSVAGHIYKHGVDDGLPGSLAGGKVRINLHADEFNELIGDEFIPMVNKAGGAGVQVTAYTQTMSDIEAKIGSRAKAGQIIGNFNNLFMLRVRETATAELLTNQLPKVQIYTSTPASGANDAINNKKAAFTSSSHDQVQMTSVPMLEPAHIVGLPKGQAFALLEGGNLWKIRMPLPAVDPDEVMPKSLQELAAGMRKGQAANSEGHHHHHH | not soluble
14 | MSLNKKMIFFDIDGTIVDEKTHVIPEGTIAAIKKARSNGHLVFINTGRTFFNVPDSIRQIGFDGYVCGCGTYIHINGQTLLEKSISHKRCVEIVEKLRECKLDALLEGQKDFFFDQREPVSEKTLELKSKFGKRGYDVSKSWDDSDIVFDKFVIWTRKESNLEAFKSHISNDFDYIDREDEEGEFGEIVLKGYSKATGIKFLQDYFNIPIEDCYALGDSLNDLPMLQYVPNSIAMGNSSKGLFDLVAFVTKDIMEDGIEYALKHYNIIEGHHHHHH | soluble
15 | MTQPLVGKQILIVEDEPVFRSLLDSWFSSLGATTALAGDGVDALELMGRFTPDLMICDIAMPRMNGLKLVENLRNRGDQTPILVISATENMADIAKALRLGVEDVLLKPVKDLNRLRETVFACLYPNMFNSRVEEEERLFRDWDAMVSNPTAAAQLLQELQPPVQQVISHCRINYRQLVSADQPGLVLDIAPLSDNELAFYCLDVTRAGDNGVLAALLLRALFNGLLQDQLGQQKHRLPELGALLKQVNHLLRQANLPGQFPLFVGYYHSELKNLILVSAGLNATLNTGAHQVQISSGVPLGTLGNAYLNQLSQRCDSWQCQIWGAGGRLRLMLSAE | not soluble
16 | MGSDKIHHHHHHMINQVYQLVAPRQFEVTYNNVDIYSDYVIVRPLYMSICAADQRYYTGSRDENVLSQKLPMSLIHEGVGEVVFDSKGVFNKGTKVVMVPNTPTEKDDVIAENYLKSSYFRSSGHDGFMQDFVLLNHDRAVPLPDDIDLSIISYTELVTVSLHAIRRFEKKSISNKNTFGIWGDGNLGYITAILLRKLYPESKIYVFGKTDYKLSHFSFVDDVFFINKIPEGLTFDHAFECVGGRGSQSAINQMIDYISPEGSIALLGVSEFPVEVNTRLVLEKGLTLIGSSRSGSKDFQDVVDLYIQYPDIVDKLALLKGQEYEIATINDLTEAFEADLSTSWGKTVLKWIM | not soluble
17 | MDYGMYFFEHVTPYETLVRRMERVIASGKTPFQDYFLFESKGFGKVLILDKDVQSTERDEYIYHETLVHPAMLTHPEPKRVLIVGGGEGATLREVLKHPTVEKAVMVDIDGELVEVAKRHMPEWHQGAFDDPRAVLVIDDARAYLERTEERYDVVIIDLTDPVGEDNPARLLYTVEFYRLVKAHLNPGGVMGMQAGMILLTHHRVHPVVHRTVREAFRYVRSYKNHIPGFFLNFGFLLASDAFDPAAFSEGVIEARIRERNLALRHLTAPYLEAMFVLPKDLLEALEKETMVSTDQNPFYVTPEGEARQAPYKG | soluble
18 | MGSDKIHHHHHHMSKILMVGSGPVAIQLARLCNLHGEHMVDMVSRVHASTKSKRVFDAYHRDGFFSVMTQNDAHQCFSGKFTVRHFFKDVKDITQYYDVVILACTADAYRPILQQLSKSTLKRIKQIILVSPTLGSHMLVKQILSDVHCEGEVISFSTYLGDTRIFDKAQPHCVLTTRVKSKLFVGSTHSQSITLYKLKSLFDYLNIELTTMDTPLHAEIHNSSLYVHPPLFMNQFSLKAVFEGTKVPVYVYKLFPEGPITMTLIHEMRLMWQEMMMILKKLKVPSVNLLKFMVKENYPIRDETMREVDIESFENLSAIHQEYLLYVRYTAILIDPFSNPDDQGAYFDFSAVPYKHVDTDEQGVIHIPRMPSEDYYRTLMIQAIGRALNVATPMIDTMLLRYETTVKQYCDTHLHQQLSKQFELHHFKQDLALVTNYLTFYR | not soluble
19 | MGSDKIHHHHHHMASSIQGQENVMSQSEFDSALPNGIGLAPYLRMKQEGMTENESRIVEWLLKPGNLSCAPAIKDVAEALAVSEAMIVKVSKLLGFSGFRNLRSALEDYFSQSEQVLPSELAFDEAPQDVVNKVFNITLRTIMEGQSIVNVDEIHRAARFFYQARQRDLYGAGGSNAICADVQHKFLRIGVRCQAYPDAHIMMMSASLLQEGDVVLVVTHSGRTSDVKAAVELAKKNGAKIICITHSYHSPIAKLADYIICSPAPETPLLGRNASARILQLTLLDAFFVSVAQLNIEQANINMQKTGAIVDFFSPGALK | not soluble
